Results reported in patent US20260193293A1, “PEPTIDES CAPABLE OF INHIBITING PROTEIN-PROTEIN INTERACTIONS AT GABAB1A SUBUNIT AND USES THEREOF” (UNIVERSITY OF COPENHAGEN, priority 2022, published 2026).
Non-standard residues stand in square brackets, D forms with d. NMeW = CN[C@@H](Cc1c[nH]c2ccccc12)C(=O)O; Cya = N[C@@H](CS(=O)(=O)O)C(=O)O; NMeE = CN[C@@H](CCC(=O)O)C(=O)O; NMeD = CN[C@@H](CC(=O)O)C(=O)O; NMeV = CN[C@H](C(=O)O)C(C)C; NMeS = CN[C@@H](CO)C(=O)O

The binders below were run against Sushi domains (SD1/2) protein of the GABAB1a (GB1a) subunit, recombinant (assay: FP competition).
Sequence of Sushi domains (SD1/2) protein of the GABAB1a (GB1a) subunit, recombinant (Q9Z0U4 29-158): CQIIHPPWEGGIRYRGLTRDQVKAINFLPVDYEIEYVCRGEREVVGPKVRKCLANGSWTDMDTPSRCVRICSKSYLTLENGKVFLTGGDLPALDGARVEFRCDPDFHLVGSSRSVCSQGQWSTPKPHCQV

Ki [µM]	fold improved affinity relative to the wild type (AJAP-1WT) [fold]	Binder
1.63		Ac-EDDS[dD]VWWGGADTD-NH2 [EDDSd…]
0.567		Ac-E[dD]DSDVWWGGADTD-NH2 [Ed…]
0.0118		Ac-ETEFI[Cya]WGPTGDED-NH2 (SMILES CC[C@H](C)[C@H](NC(=O)[C@H](Cc1ccccc1)NC(=O)[C@H](CCC(=O)O)NC(=O)[C@@H](NC(=O)[C@H](CCC(=O)O)NC(C)=O)[C@@H](C)O)C(=O)N[C@@H](CS(=O)(=O)O)C(=O)N[C@@H](Cc1c[nH]c2ccccc12)C(=O)NCC(=O)N1CCC[C@H]1C(=O)N[C@H](C(=O)NCC(=O)N[C@@H](CC(=O)O)C(=O)N[C@@H](CCC(=O)O)C(=O)N[C@@H](CC(=O)O)C(N)=O)[C@@H](C)O) [Ac-ETEFI(Cya)WGPTGDED-NH2 (AJAP-1WT mutant Ala182Cya)]
1.67		Ac-EDD[NMeS]DVWWGGADTD-NH2 (SMILES CC(=O)N[C@@H](CCC(=O)O)C(=O)N[C@@H](CC(=O)O)C(=O)N[C@@H](CC(=O)O)C(=O)N(C)[C@@H](CO)C(=O)N[C@@H](CC(=O)O)C(=O)N[C@H](C(=O)N[C@@H](Cc1c[nH]c2ccccc12)C(=O)N[C@@H](Cc1c[nH]c2ccccc12)C(=O)NCC(=O)NCC(=O)N[C@@H](C)C(=O)N[C@@H](CC(=O)O)C(=O)N[C@H](C(=O)N[C@@H](CC(=O)O)C(N)=O)[C@@H](C)O)C(C)C) [EDD(N-Me-S)…]
0.637		Ac-EDDSDVWWGGA[dD]TD-NH2 […dTD]
0.655		Ac-E[NMeD]DSDVWWGGADTD-NH2 (SMILES CC(=O)N[C@@H](CCC(=O)O)C(=O)N(C)[C@@H](CC(=O)O)C(=O)N[C@@H](CC(=O)O)C(=O)N[C@@H](CO)C(=O)N[C@@H](CC(=O)O)C(=O)N[C@H](C(=O)N[C@@H](Cc1c[nH]c2ccccc12)C(=O)N[C@@H](Cc1c[nH]c2ccccc12)C(=O)NCC(=O)NCC(=O)N[C@@H](C)C(=O)N[C@@H](CC(=O)O)C(=O)N[C@H](C(=O)N[C@@H](CC(=O)O)C(N)=O)[C@@H](C)O)C(C)C) [E(N-Me-D)…]
0.67		Ac-[NMeE]DDSDVWWGGADTD-NH2 (SMILES CC(=O)N(C)[C@@H](CCC(=O)O)C(=O)N[C@@H](CC(=O)O)C(=O)N[C@@H](CC(=O)O)C(=O)N[C@@H](CO)C(=O)N[C@@H](CC(=O)O)C(=O)N[C@H](C(=O)N[C@@H](Cc1c[nH]c2ccccc12)C(=O)N[C@@H](Cc1c[nH]c2ccccc12)C(=O)NCC(=O)NCC(=O)N[C@@H](C)C(=O)N[C@@H](CC(=O)O)C(=O)N[C@H](C(=O)N[C@@H](CC(=O)O)C(N)=O)[C@@H](C)O)C(C)C) [(N-Me-E)…]
0.529		Ac-EDDSDVWWGGADT[dD]-NH2 […d]
1.21		Ac-EDDSDVWWG[dA]ADTD-NH2 […aADTD]
0.48		Ac-EDDSDVWWGGADAD-NH2

More lines, now with the values behind:

Binder	Ki [µM]	fold improved affinity relative to the wild type (AJAP-1WT) [fold]
Ac-EDDS[NMeD]VWWGGADTD-NH2 (SMILES CC(=O)N[C@@H](CCC(=O)O)C(=O)N[C@@H](CC(=O)O)C(=O)N[C@@H](CC(=O)O)C(=O)N[C@@H](CO)C(=O)N(C)[C@@H](CC(=O)O)C(=O)N[C@H](C(=O)N[C@@H](Cc1c[nH]c2ccccc12)C(=O)N[C@@H](Cc1c[nH]c2ccccc12)C(=O)NCC(=O)NCC(=O)N[C@@H](C)C(=O)N[C@@H](CC(=O)O)C(=O)N[C@H](C(=O)N[C@@H](CC(=O)O)C(N)=O)[C@@H](C)O)C(C)C) [EDDS(N-Me-D)…]	3.76	
Ac-EDDSDVWW[dA]GADTD-NH2 [EDDSDVWWaGADTD]	8.7	
Ac-ED[NMeD]SDVWWGGADTD-NH2 (SMILES CC(=O)N[C@@H](CCC(=O)O)C(=O)N[C@@H](CC(=O)O)C(=O)N(C)[C@@H](CC(=O)O)C(=O)N[C@@H](CO)C(=O)N[C@@H](CC(=O)O)C(=O)N[C@H](C(=O)N[C@@H](Cc1c[nH]c2ccccc12)C(=O)N[C@@H](Cc1c[nH]c2ccccc12)C(=O)NCC(=O)NCC(=O)N[C@@H](C)C(=O)N[C@@H](CC(=O)O)C(=O)N[C@H](C(=O)N[C@@H](CC(=O)O)C(N)=O)[C@@H](C)O)C(C)C) [ED(N-Me-D)…]	0.671	
Ac-EDDSDV[NMeW]WGGADTD-NH2 (SMILES CC(=O)N[C@@H](CCC(=O)O)C(=O)N[C@@H](CC(=O)O)C(=O)N[C@@H](CC(=O)O)C(=O)N[C@@H](CO)C(=O)N[C@@H](CC(=O)O)C(=O)N[C@H](C(=O)N(C)[C@@H](Cc1c[nH]c2ccccc12)C(=O)N[C@@H](Cc1c[nH]c2ccccc12)C(=O)NCC(=O)NCC(=O)N[C@@H](C)C(=O)N[C@@H](CC(=O)O)C(=O)N[C@H](C(=O)N[C@@H](CC(=O)O)C(N)=O)[C@@H](C)O)C(C)C) [EDDSDV(N-Me-W)WGGADTD]	85.6	
Ac-[dE]DDSDVWWGGADTD-NH2 (SMILES CC(=O)N[C@H](CCC(=O)O)C(=O)N[C@@H](CC(=O)O)C(=O)N[C@@H](CC(=O)O)C(=O)N[C@@H](CO)C(=O)N[C@@H](CC(=O)O)C(=O)N[C@H](C(=O)N[C@@H](Cc1c[nH]c2ccccc12)C(=O)N[C@@H](Cc1c[nH]c2ccccc12)C(=O)NCC(=O)NCC(=O)N[C@@H](C)C(=O)N[C@@H](CC(=O)O)C(=O)N[C@H](C(=O)N[C@@H](CC(=O)O)C(N)=O)[C@@H](C)O)C(C)C) [e…]	0.483	
Ac-ED[dD]SDVWWGGADTD-NH2 [EDd…]	0.736	
Ac-EDDSDVWWGGADTA-NH2	0.786	
Ac-EDDSDVWWGGAD[dT]D-NH2 […tD]	0.469	
Ac-EDD[dS]DVWWGGADTD-NH2 [EDDs…]	0.752	
Ac-EDDSD[NMeV]WWGGADTD-NH2 (SMILES CC(=O)N[C@@H](CCC(=O)O)C(=O)N[C@@H](CC(=O)O)C(=O)N[C@@H](CC(=O)O)C(=O)N[C@@H](CO)C(=O)N[C@@H](CC(=O)O)C(=O)N(C)[C@H](C(=O)N[C@@H](Cc1c[nH]c2ccccc12)C(=O)N[C@@H](Cc1c[nH]c2ccccc12)C(=O)NCC(=O)NCC(=O)N[C@@H](C)C(=O)N[C@@H](CC(=O)O)C(=O)N[C@H](C(=O)N[C@@H](CC(=O)O)C(N)=O)[C@@H](C)O)C(C)C) [EDDSD(N-Me-V)WWGGADTD]	12.3	
Ac-ETEFIDWGPTGDED-NH2 [peptide 26 (Ac-…-NH2, AJAP-1WT mutant A182D)]		3
Ac-EDDSDVWWGG[dA]DTD-NH2 […aDTD]	0.755	
